# Reference: paper PMC5532264
# Assays:
# [1] = AFM, tether rupture events per retraction; settings: glycan lost; control: DC-SIGN-WT
# [2] = cell surface expression by flow cytometry, CHO; settings: glycan lost; control: DC-SIGN-WT
# [3] = linear fit to averaged AFM retraction FD-curves; settings: glycan lost; control: untreated CHO-DC-SIGN-WT
protein,measurement,setting,value
DC-SIGN (CD209): N80A (protein) parent chain: MSDSKEPRLQQLGLLEEEQLRGLGFRQTRGYKSLAGCLGHGPLVLQLLSFTLLAGLLVQVSKVPSSISQEQSRQDAIYQNLTQLKAAVGELSEKSKLQEIYQELTQLKAAVGELPEKSKLQEIYQELTRLKAAVGELPEKSKLQEIYQELTWLKAAVGELPEKSKMQEIYQELTRLKAAVGELPEKSKQQEIYQELTRLKAAVGELPEKSKQQEIYQELTRLKAAVGELPEKSKQQEIYQELTQLKAAVERLCHPCPWEWTFFQGNCYFMSNSQRNWHDSITACKEVGAQLVVIKSAEEQNFLQLQSSRSNRFTWMGLSDLNQEGTWQWVDGSPLLPSFKQYWNRGEPNNVGEEDCAEFSGNGWNDDKCNLAKFWICKKSAASCSRDEEQFLSPAPATPNPPPA,other: membrane tether formation,[1],no change
same,expression_or_secretion,[2],no change
same,"other: adhesion-site elasticity (cell stiffening), fold_change",[3],decreases
